From patent US20250152743A1, “SYNPOPTOSIS CIRCUITS FOR PROGRAMMABLE CELL DEATH CONTROL” (California Institute of Technology, priority 2023, published 2025)

Target: Caspase-3-L-tev-S (Homo sapiens (Human)) (UniProt P42574)
Assay: cell-based or functional assay

membrane-bound TEVP (CAAX) (enzyme)
cell death of polytransfected HEK293 cells, Annexin V staining and flow cytometry: 40 % cell death
